Results from PMC6821365.
Where a chain is given by its changes, count along the chain named.

How the values were obtained:
yedK R4A = biological target: T1, yedK R4A (Escherichia coli (gene from BL21 …, UniProt P76318 2-222, R4A)); assay: ITC
T1 sequence: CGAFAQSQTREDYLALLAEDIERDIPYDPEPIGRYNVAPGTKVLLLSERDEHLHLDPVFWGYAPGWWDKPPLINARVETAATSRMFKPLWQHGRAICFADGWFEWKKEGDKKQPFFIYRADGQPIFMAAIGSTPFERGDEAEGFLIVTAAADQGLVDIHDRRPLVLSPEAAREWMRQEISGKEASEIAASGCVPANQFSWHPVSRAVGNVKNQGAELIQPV

yedK N75A = biological target: T2, yedK N75A (Escherichia coli (gene from BL21 …, UniProt P76318 2-222, N75A)); assay: ITC
T2 sequence: T1 sequence with A3R, N74A

B1: ssDNA (ssDNA)
DNA: CGGTCGATTC
yedK R4A
  Kd: 34.6 µM
yedK N75A
  Kd: 37.9 µM
